# Where “and” joins values, the source holds several entries; their conditions need not be identical. Equal values may be shown once. Entries after “also recorded” stand apart in the source; their conditions may differ. Ends that are not written are not given here.
# Assays:
# [1] = target: T1, EphB4 (Homo sapiens, UniProt P54760); assay: EphB4 activation by multimeric peptide forms (unpublished data); format: cell-based
# T1 sequence (P54760 16-987): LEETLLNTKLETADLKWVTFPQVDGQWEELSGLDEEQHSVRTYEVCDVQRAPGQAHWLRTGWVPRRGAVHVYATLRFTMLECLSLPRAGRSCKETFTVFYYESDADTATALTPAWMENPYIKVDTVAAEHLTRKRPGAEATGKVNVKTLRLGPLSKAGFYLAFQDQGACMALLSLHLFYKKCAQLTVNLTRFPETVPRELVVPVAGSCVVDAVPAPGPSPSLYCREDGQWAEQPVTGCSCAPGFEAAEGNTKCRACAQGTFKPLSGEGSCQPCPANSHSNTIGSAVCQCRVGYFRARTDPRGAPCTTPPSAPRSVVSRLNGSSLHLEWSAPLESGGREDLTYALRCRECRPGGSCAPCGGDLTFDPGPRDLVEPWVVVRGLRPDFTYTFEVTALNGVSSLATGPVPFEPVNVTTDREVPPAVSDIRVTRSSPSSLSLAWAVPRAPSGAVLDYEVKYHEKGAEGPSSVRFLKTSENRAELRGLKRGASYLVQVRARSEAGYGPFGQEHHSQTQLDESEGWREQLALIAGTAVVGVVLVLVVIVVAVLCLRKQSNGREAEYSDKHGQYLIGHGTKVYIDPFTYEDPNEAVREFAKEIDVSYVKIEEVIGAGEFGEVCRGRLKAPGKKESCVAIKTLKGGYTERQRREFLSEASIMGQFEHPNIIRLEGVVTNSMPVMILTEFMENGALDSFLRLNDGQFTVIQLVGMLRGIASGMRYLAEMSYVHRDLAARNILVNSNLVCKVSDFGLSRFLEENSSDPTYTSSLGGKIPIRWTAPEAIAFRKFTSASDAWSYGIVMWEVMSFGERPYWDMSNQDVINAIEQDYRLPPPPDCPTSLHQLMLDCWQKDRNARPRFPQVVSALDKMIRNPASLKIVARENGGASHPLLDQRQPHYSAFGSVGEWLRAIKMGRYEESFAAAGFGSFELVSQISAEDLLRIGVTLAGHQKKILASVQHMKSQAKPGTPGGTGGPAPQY
# [2] = Peptide retention in mouse blood circulation; format: in vivo; settings: C57BL/6 mice, intravenous, serum ELISA, 3 mice, Figure 3C; for Circulation half-life (t1/2): 2.1 nmoles TNYL-RAW-Fc, 1.5 nmoles TNYL-RAW-streptavidin, 6 nmoles PEG-TNYL-RAW, non linear regression; for AUC: % of the injected dose•hours/ml
# Procedure: 2.1 nmoles TNYL-RAW-Fc, 1.5 nmoles TNYL-RAW-streptavidin and 6 nmoles PEG-TNYL-RAW, diluted in 150 µl sterile PBS, were administered to C57BL/6 mice by intravenous or intraperitoneal injection. Blood was collected from each mouse from the orbital sinus at two time points after injection and by cardiac puncture under Avertin anesthesia at a third time point. These experiments were carried out in accordance with the recommendations in the Guide for the Care and Use of Laboratory Animals of the National Institutes of Health. The protocol was approved by the Institutional Animal Care and Use Committee of the Sanford-Burnham Medical Research Institute (Animal Assurance Number: A-3053-1). After collection, the blood was […], and the serum was stored at −20°C. The different forms of TNYL-RAW in the serum were detected by using the same ELISA assays described above for measurements of binding affinity. The absorbance from wells incubated with mouse serum without TNYL-RAW was subtracted as the background and the concentration of TNYL-RAW in the blood was calculated based on a standard curve generated using serum containing known TNYL-RAW concentrations. The half-life of each peptide was estimated by using non linear regression and the program Prism (GraphPad Software Inc.). The area under the curve (AUC) was expressed as % ID•hours/ml (where ID is the initial dose of peptide injected) and calculated by dividing the AUC value obtained using the program Prism by the amount of injected peptide and multiplying by 100.
# [3] = Peptide stability in cell culture medium / conditioned medium (ELISA of functional peptide); format: in vitro ADME; settings: up to 48 hours; 25 nM peptide; medium diluted 1:10; functional peptide by ELISA; 6–9 measurements; Figure 3A
# Procedure: PC3 prostate cancer cells were grown in RPMI 1640 medium (Mediatech, Inc, Herndon, VA) with 10% fetal bovine serum (FBS) (Hyclone, Logan, UT), penicillin and streptomycin. B16-F10-luc-G5 melanoma cells (Caliper Life Sciences, Hopkinton, MA) were grown in Eagle's MEM with Earle's Balanced Salts (EBSS) (Hyclone, Logan, UT) supplemented with 10% FBS, non essential amino acids (Hyclone, Logan, UT), L-glutamine, sodium pyruvate (Hyclone, Logan, UT), MEM vitamin solution (Life Technologies-Invitrogen), penicillin and streptomycin (Omega Scientific, Tarzana, CA). HUVECs (Cascade Biologics, Portland, OG) were grown in Medium 200 supplemented with low serum growth supplements (Cascade Biologics), 10% FBS, penicillin and streptomycin, and fungizone (Omega Scientific, Tarzana, CA). Rat EMCs were grown in DMEM (Mediatech, Inc, Herndon, VA) supplemented with 10% FBS, penicillin and streptomycin. The different modified forms of TNYL-RAW at a concentration of 25 nM were added to fresh medium or culture medium conditioned by the cells for 1–4 days. The culture medium was collected after different time periods and diluted 1∶10 in ELISA wells. The amount of intact TNYL-RAW peptide remaining was measured by using the ELISA assays described above for measurement of binding affinity. In some experiments, the peptide was incubated at 37°C with PC3 cell conditioned medium collected from the cells in the absence or in the presence of protease inhibitors (10 µg/ml aprotinin, 5 µg/ml pepstatin, 10 µg/ml leupeptin and 0.75 mM or phenylmethylsulfonylfluoride (PMSF)).
# [4] = Peptide stability in mouse serum ex vivo; format: in vitro ADME; settings: undiluted mouse serum, 37°C, functional peptide by ELISA; Figures 1E, 3B
Substance,Activation of EphB4 [1],Circulation half-life (t1/2) [2],AUC [2] [% ID-h/ml],Degradation in PC3 cell conditioned medium [3],Stability in mouse serum ex vivo [4]
TNYL-RAW-streptavidin: biotinylated TNYL-RAW in complex with streptavidin at molar ratio 4:1,unable to detectably activate EphB4,~1 h and 1.3 h,110,absence of peptide degradation,much decreased degradation
"TNYL-RAW-Fc: TNYL-RAW fused through a GSGSK linker to the Fc portion of human IgG1, from HEK 293 cells (TNYLFSPNGPIARAWGSGSK-{Fc (human IgG1)}; also: dimer)",unable to detectably activate EphB4,~1 h and 0.8 h,140,absence of peptide degradation,much decreased degradation; also recorded: not as stable in mouse serum as the streptavidin-bound or PEGylated peptide

# Source: PMC3237458, “PEGylation Potentiates the Effectiveness of an Antagonistic Peptide That Targets the EphB4 Receptor with Nanomolar Affinity” (PLoS ONE, 2011)
